From patent publication US20040014178A1 (published 2004) come the findings set out here.

Assay [1] deals with T1, human recombinant von Willebrand factor (human, UniProt P04275 764-2813).
T1 construct: also called rvWf; rvWF
Description: phagemid clone isolated by panning the S. lugdunensis library against vWF.

In assay [2] the target is T1, human recombinant von Willebrand factor. Briefly: blot of vWb on nitrocellulose probed with 125I-labelled vWF.

B1: phagemid clone SlvW2 (vWbl fragment displayed on phagemid particles) (other)
chain: GNEVQETEEGTHDAPGIIGDKWQYTGQTTTEDGITTHIYQRIQSEIPNEAPQETPVALEVTRYVDSEGN
B1: in assay [1], the binding result was “binds”.

B2: vWb (von Willebrand factor binding protein) from S. aureus, wild type secreted protein (other)
chain: VVSGEKNPYVSESLKLTNNKNKSRTVEEYKKSLDDLIWSFPNLDNERFDNPEYKEAMKKYQQRFMAEDEALKKFFSEEKKIKNGNTDNLDYLGLSHERYESVFNTLKKQSEEFLKEIEDIKKDNPELKDFNEEEQLKCDLELNKLENQILMLGKTFYQNYRDDVESLYSKLDLIMGYKDEERANKKAVNKRMLENKKEDLETIIDEFFSDIDKTRPNNIPVLEDEKQEEKNHKNMAQLKSDTEAAKSDESKRSKRSKRSLNTQNHKPASQEVSEQQKAEYDKRAEERKARFLDNQKIKKTPVVSLEYDFEHKQRIDNENDKKLVVSAPTKKPTSPTTYTETTTQVPMPTVERQTQQQIIYNAPKQLAGLNGESHDFTTTHQSPTTSNHTHNNVVEFEETSALPGRKSGSLVGISQIDSSHLTEREKRVIKREHVREAQKLVDNYKDTHSYKDRINAQQKVNTLSEGHQKRFNKQINKVYNGK
notes: Purified from the culture supernatant of S. aureus Newman with the Eap gene deleted; also called wild type vWb; purified secreted vWb protein
Consider B2, for which the binding result in assay [2] is listed as “binds”.
